Assays:
[1] = molecular target: T1, CD40 extracellular Domain 2 GST fusion protein (human, UniProt P25942 61-104); assay: western blot of CD40 Domain 2, reduced
T1 construct: Expressed in insect cells with a GP67 secretion signal; not shown: glutathione S-transferase (GST) fusion partner
T1 chain: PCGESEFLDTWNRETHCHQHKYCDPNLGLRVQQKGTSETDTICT

[2] = molecular target: T2, CD40 extracellular Domain 1 GST fusion protein (human); assay: western blot of CD40 domain GST fusion proteins
T2 construct: Expressed in insect cells with a GP67 secretion signal; not shown: glutathione S-transferase (GST) fusion partner
T2 chain: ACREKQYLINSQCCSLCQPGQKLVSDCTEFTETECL
Method: (§1) To map the antigenic region on CD40, the four extracellular domains of CD40 were cloned and expressed in insect cells as GST fusion proteins. The secretion of the four domains was ensured with a GP67 secretion signal. Insect cell supernatant was analyzed by SDS-PAGE and western blot analysis to identify the domain containing the epitope.

[3] = molecular target: T3, CD40 extracellular Domain 3 GST fusion protein (human, UniProt P25942 104-144); assay: western blot of CD40 domain GST fusion proteins
T3 construct: Expressed in insect cells with a GP67 secretion signal; not shown: glutathione S-transferase (GST) fusion partner
T3 chain: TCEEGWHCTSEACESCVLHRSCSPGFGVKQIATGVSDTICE
Method: as §1

[4] = molecular target: T4, CD40 extracellular Domain 4 GST fusion protein (human, UniProt P25942 145-187); assay: western blot of CD40 domain GST fusion proteins
T4 construct: Expressed in insect cells with a GP67 secretion signal; not shown: glutathione S-transferase (GST) fusion partner
T4 chain: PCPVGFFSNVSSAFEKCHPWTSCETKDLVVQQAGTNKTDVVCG
Method: as §1

[5] = molecular target: T5, CD40 Domain 2 10-mer peptide KYCDPNLGLR (spot 21) (human); assay: SPOTs membrane of 10-mer peptides, spot 21 listed as recognised
T5 construct: Synthetic 10-mer on a SPOTs membrane (Sigma)
T5 peptide: KYCDPNLGLR
Excerpt: (§2) SPOTs membranes (Sigma) containing thirty-five 10 mer peptides with a 1-amino-acid offset were generated.

[6] = molecular target: T6, CD40 Domain 2 10-mer peptide YCDPNLGLRV (spot 22) (human); assay: SPOTs membrane of 10-mer peptides, spot 22 listed as recognised
T6 construct: Synthetic 10-mer on a SPOTs membrane (Sigma)
T6 peptide: YCDPNLGLRV
Excerpt: as §2

[7] = molecular target: T7, CD40 Domain 2 10-mer peptide HKYCDPNLGL (spot 20) (human); assay: SPOTs membrane of 10-mer peptides, spot 20 listed as recognised
T7 construct: Synthetic 10-mer on a SPOTs membrane (Sigma)
T7 peptide: HKYCDPNLGL
Excerpt: as §2

[8] = molecular target: T8, CD40 extracellular Domain 2 GST fusion protein (human, UniProt P25942 61-104); assay: Western blot of GST domain fusions
T8 construct: Expressed in insect cells with a GP67 secretion signal; not shown: GST fusion partner
T8 chain: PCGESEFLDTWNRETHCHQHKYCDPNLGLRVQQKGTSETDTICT

[9] = molecular target: T9, Recombinant soluble CD40-his (human, UniProt P25942 21-193); assay: Biacore
T9 construct: Analyte in the Biacore experiments; not shown: his tag
T9 sequence (P25942 21-193 limits assumed): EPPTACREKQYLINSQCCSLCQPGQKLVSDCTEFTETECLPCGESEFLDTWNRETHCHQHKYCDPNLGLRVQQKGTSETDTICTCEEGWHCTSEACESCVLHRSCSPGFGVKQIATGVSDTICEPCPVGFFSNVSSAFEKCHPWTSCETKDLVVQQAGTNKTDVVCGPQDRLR
Method: (§3) Protein A was immobilized onto CM5 biosensor chips via amine coupling. Human anti-CD40 monoclonal antibodies, at 1.5 μg/ml, were captured onto the modified biosensor surface for 1.5 minutes at 10 μl/min. Recombinant soluble CD40-his was flowed over the biosensor surface at varying concentrations. Antibody and antigen were diluted in 0.01 M HEPES pH 7.4, 0.15 M NaCl, 3 mM EDTA, 0.005% Surfactant P20 (HBS-EP). Kinetic and affinity constants were determined using the Biaevaluation software with a 1:1 interaction model/global fit.

[10] = molecular target: T10, CD40 extracellular Domain 3 GST fusion protein (human, UniProt P25942 104-144); assay: SDS-PAGE and Western blot of insect cell supernatant with GST domain fusions
T10 construct: not shown: GST fusion partner
T10 chain: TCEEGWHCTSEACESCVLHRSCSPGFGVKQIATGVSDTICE
Method: as §1

[11] = molecular target: T11, CD40 extracellular Domain 1 GST fusion protein (human); assay: as above
T11 construct: Expressed in insect cells with a GP67 secretion signal; not shown: GST fusion partner
T11 chain: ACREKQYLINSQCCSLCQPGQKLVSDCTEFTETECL
Method: as §1

[12] = molecular target: T12, CD40 extracellular Domain 4 GST fusion protein (human, UniProt P25942 145-187); assay: as above
T12 construct: not shown: GST fusion partner
T12 chain: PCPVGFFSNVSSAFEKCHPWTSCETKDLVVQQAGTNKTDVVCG
Method: as §1

[13] = molecular target: T13, SPOTs peptide, spot 20 (HKYCDPNLGL) (human); assay: SPOTs peptide membrane, stripped and reprobed
T13 peptide: HKYCDPNLGL
Excerpt: as §2

[14] = molecular target: T14, SPOTs peptide, spot 22 (YCDPNLGLRV) (human); assay: SPOTs peptide membrane, stripped and reprobed
T14 peptide: YCDPNLGLRV
Excerpt: as §2

[15] = molecular target: T15, SPOTs peptide, spot 21 (KYCDPNLGLR) (human); assay: SPOTs peptide membrane, stripped and reprobed
T15 peptide: KYCDPNLGLR
Excerpt: as §2

[16] = molecular target: T9, Recombinant soluble CD40-his; assay: Biacore, antibody captured on protein A CM5 chip, CD40-his as analyte, 1:1 model/global fit
Method: as §3

[17] = molecular target: human CD40 on normal human B cells (PBMC or purified B cells) (human, UniProt P25942 20-277); assay: cell-based or functional assay
Sequence of human CD40 on normal human B cells (PBMC or purified B cells) (P25942 20-277): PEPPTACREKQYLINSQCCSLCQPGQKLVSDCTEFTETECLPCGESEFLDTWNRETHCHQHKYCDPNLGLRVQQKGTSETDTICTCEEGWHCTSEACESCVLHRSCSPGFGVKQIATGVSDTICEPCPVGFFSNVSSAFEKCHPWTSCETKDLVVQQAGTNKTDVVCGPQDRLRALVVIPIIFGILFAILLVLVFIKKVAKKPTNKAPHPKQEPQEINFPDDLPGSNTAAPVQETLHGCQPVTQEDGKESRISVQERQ

[18] = molecular target: T16, SPOTs peptide, spot 18 (HQHKYCDPNL) (human); assay: SPOTs peptide membrane, antibody at 10 µg/ml
T16 peptide: HQHKYCDPNL
Excerpt: as §2

[19] = molecular target: T17, SPOTs peptide, spot 19 (QHKYCDPNLG) (human); assay: SPOTs peptide membrane, antibody at 10 µg/ml
T17 peptide: QHKYCDPNLG
Excerpt: as §2

[20] = molecular target: T13, SPOTs peptide, spot 20 (HKYCDPNLGL); assay: SPOTs peptide membrane, antibody at 10 µg/ml
Excerpt: as §2

[21] = molecular target: T14, SPOTs peptide, spot 22 (YCDPNLGLRV); assay: SPOTs peptide membrane, antibody at 10 µg/ml
Excerpt: as §2

[22] = molecular target: T15, SPOTs peptide, spot 21 (KYCDPNLGLR); assay: SPOTs peptide membrane, antibody at 10 µg/ml
Excerpt: as §2

[23] = molecular target: human CD40 antigen expressed on the surface of cells (human, UniProt P25942 20-277); assay: cell-based or functional assay
Sequence of human CD40 antigen expressed on the surface of cells (P25942 20-277): as above

[24] = molecular target: T18, CD40 Domain 2 SPOTs peptide, spot 18 (HQHKYCDPNL) (human); assay: SPOTs membrane of 10mer peptides of CD40 Domain 2; spot 18 listed among the results
T18 construct: 10mer synthesized on a SPOTs membrane; also called Spot Number 18
T18 peptide: HQHKYCDPNL
Excerpt: as §2

[25] = molecular target: T19, CD40 Domain 2 SPOTs peptide, spot 19 (QHKYCDPNLG) (human); assay: SPOTs membrane of 10mer peptides of CD40 Domain 2; spot 19 listed among the results
T19 construct: 10mer synthesized on a SPOTs membrane; also called Spot Number 19
T19 peptide: QHKYCDPNLG
Excerpt: as §2

[26] = molecular target: T20, CD40 Domain 2 SPOTs peptide, spot 21 (KYCDPNLGLR) (human); assay: SPOTs membrane of 10mer peptides of CD40 Domain 2; spot 21 listed among the results
T20 construct: 10mer synthesized on a SPOTs membrane; also called Spot Number 21
T20 peptide: KYCDPNLGLR
Excerpt: as §2

[27] = molecular target: T21, CD40 Domain 2 SPOTs peptide, spot 22 (YCDPNLGLRV) (human); assay: SPOTs membrane of 10mer peptides of CD40 Domain 2; spot 22 listed among the results
T21 construct: 10mer synthesized on a SPOTs membrane; also called Spot Number 22
T21 peptide: YCDPNLGLRV
Excerpt: as §2

[28] = molecular target: T1, CD40 extracellular Domain 2 GST fusion …; assay: western blot of CD40 domain GST fusion proteins (Domain 2)
Method: as §1

[29] = molecular target: T22, CD40 Domain 2 SPOTs peptide, spot 20 (HKYCDPNLGL) (human); assay: SPOTs membrane of 10mer peptides of CD40 Domain 2; spot 20 listed among the results
T22 construct: 10mer synthesized on a SPOTs membrane; also called Spot Number 20
T22 peptide: HKYCDPNLGL
Excerpt: as §2

B1: monoclonal antibody CHIR-5.9 (antibody, human IgG1, kappa)
heavy: not shown
light: AIVMTQPPLSSPVTLGQPASISCRSSQSLVHSDGNTYLNWLQQRPGQPPRLLIYKFFRRLSGVPDRFSGSGAGTDFTLKISRVEAEDVGVYYCMQVTQFPHTFGQGTRLEIKRTVAAPSVFIFPPSDEQLKSGTASVVCLLNNFYPREAKVQWKVDNALQSGNSQESVTEQDSKDSTYSLSSTLTLSKADYEKHKVYACEVTHQGLSSPVTKSFNRGEC
notes: Fully human IgG1 kappa anti-CD40 antibody; Leader residues (1-19 heavy, 1-20 light) left out as stated; also called mAb CHIR-5.9; CHIR-5.9/5.11
binding result [1]: binds | binding result [2]: no binding | binding result [3]: no binding | binding result [4]: no binding

B2: monoclonal antibody CHIR-5.9 (antibody, human IgG1, kappa)
light: AIVMTQPPLSSPVTLGQPASISCRSSQSLVHSDGNTYLNWLQQRPGQPPRLLIYKFFRRLSGVPDRFSGSGAGTDFTLKISRVEAEDVGVYYCMQVTQFPHTFGQGTRLEIKRTVAAPSVFIFPPSDEQLKSGTASVVCLLNNFYPREAKVQWKVDNALQSGNSQESVTEQDSKDSTYSLSSTLTLSKADYEKHKVYACEVTHQGLSSPVTKSFNRGEC
heavy: not shown
notes: Fully human IgG1 kappa anti-CD40 antibody; also called mAb CHIR-5.9
binding result [5]: binds | binding result [6]: binds | binding result [7]: binds

B3: monoclonal antibody CHIR-5.9 (antibody, human IgG1, kappa)
light: AIVMTQPPLSSPVTLGQPASISCRSSQSLVHSDGNTYLNWLQQRPGQPPRLLIYKFFRRLSGVPDRFSGSGAGTDFTLKISRVEAEDVGVYYCMQVTQFPHTFGQGTRLEIKRTVAAPSVFIFPPSDEQLKSGTASVVCLLNNFYPREAKVQWKVDNALQSGNSQESVTEQDSKDSTYSLSSTLTLSKADYEKHKVYACEVTHQGLSSPVTKSFNRGEC
heavy: not shown
notes: also called mAb 5.9
binding result [8]: binds | Kd [9]: 12 nM | binding result [10]: no binding | binding result [11]: no binding | binding result [12]: no binding | binding result [13]: binds | binding result [14]: binds | binding result [15]: binds | Kd [16]: 12.2 nM

B4: monoclonal antibody CHIR-12.12 (antibody, human IgG1, kappa)
heavy: not shown
light: DIVMTQSPLSLTVTPGEPASISCRSSQSLLYSNGYNYLDWYLQKPGQSPQVLISLGSNRASGVPDRFSGSGSGTDFTLKISRVEAEDVGVYYCMQARQTPFTFGPGTKVDIRRTVAAPSVFIFPPSDEQLKSGTASVVCLLNNFYPREAKVQWKVDNALQSGNSQESVTEQDSKDSTYSLSSTLTLSKADYEKHKVYACEVTHQGLSSPVTKSFNRGEC
IC50(nM) for inhibition of CD40L-induced PBMC proliferation; PBMC-025 Donor#1 [17]: 24.2 nM | IC50(nM) for inhibition of CD40L-induced PBMC proliferation; PBMC-025 Donor#2 [17]: 66 nM | IC50(nM) for inhibition of CD40L-induced PBMC proliferation; PBMC-026 Donor#1 [17]: 45 nM | IC50(nM) for inhibition of CD40L-induced PBMC proliferation; PBMC-026 Donor#2 [17]: 84 nM | IC50(nM) for inhibition of CD40L-induced PBMC proliferation; PBMC-028 Donor#1 [17]: 30.1 nM | IC50(nM) for inhibition of CD40L-induced PBMC proliferation; PBMC-028 Donor#2 [17]: 34.7 nM | IC50(nM) for inhibition of CD40L-induced PBMC proliferation; PBMC-029 Donor#1 [17]: 28.1 nM | IC50(nM) for inhibition of CD40L-induced PBMC proliferation; PBMC-029 Donor#2 [17]: 55.4 nM | IC50(nM) for inhibition of CD40L-induced PBMC proliferation; PBMC-030 Donor#1 [17]: 35.5 nM | IC50(nM) for inhibition of CD40L-induced PBMC proliferation; PBMC-030 Donor#2 [17]: 103 nM | IC50(nM) for inhibition of CD40L-induced PBMC proliferation; PBMC-032 Donor#1 [17]: 40.4 nM | average IC50(nM) for inhibition of CD40L-induced PBMC proliferation [17]: 49.6 nM

B5: monoclonal antibody CHIR-12.12 (antibody, human IgG1, kappa)
light: DIVMTQSPLSLTVTPGEPASISCRSSQSLLYSNGYNYLDWYLQKPGQSPQVLISLGSNRASGVPDRFSGSGSGTDFTLKISRVEAEDVGVYYCMQARQTPFTFGPGTKVDIRRTVAAPSVFIFPPSDEQLKSGTASVVCLLNNFYPREAKVQWKVDNALQSGNSQESVTEQDSKDSTYSLSSTLTLSKADYEKHKVYACEVTHQGLSSPVTKSFNRGEC
heavy: not shown
binding result [8]: binds | Kd [9]: 0.5 nM | binding result [10]: no binding | binding result [11]: no binding | binding result [12]: no binding | binding result [18]: binds | binding result [19]: binds | binding result [20]: binds | binding result [21]: binds | binding result [22]: binds | Kd [16]: 0.51 nM | IC50: antibody concentration to inhibit 50% of CD-40 ligand-induced lymphocyte proliferation, average of 6 donors [23]: 0.047 nM

B6: monoclonal antibody CHIR-12.12 (antibody, human IgG1, kappa)
heavy: not shown
light: DIVMTQSPLSLTVTPGEPASISCRSSQSLLYSNGYNYLDWYLQKPGQSPQVLISLGSNRASGVPDRFSGSGSGTDFTLKISRVEAEDVGVYYCMQARQTPFTFGPGTKVDIRRTVAAPSVFIFPPSDEQLKSGTASVVCLLNNFYPREAKVQWKVDNALQSGNSQESVTEQDSKDSTYSLSSTLTLSKADYEKHKVYACEVTHQGLSSPVTKSFNRGEC
notes: Fully human IgG1 kappa anti-CD40 antibody; Leader residues (1-19 heavy, 1-20 light) left out as stated
binding result [24]: binds | binding result [25]: binds | binding result [26]: binds | binding result [27]: binds | binding result [28]: binds | binding result [2]: no binding | binding result [3]: no binding | binding result [4]: no binding | binding result [29]: binds

Source: patent US20080254026A1 (published 2008)
